Assay results: article PMC6805484, “The RNA-binding ubiquitin ligase MKRN1 functions in ribosome-associated quality control of poly(A) translation” (Genome Biology, 2019)

Molecular target: T1, recombinant His-PABPC1 (human, UniProt P11940 1-636)
T1 construct: hsPABPC1 expressed from pET53-DEST; also called N-His6-tagged hsPABPC1; source: E. coli Rosetta 2(DE3) pLysS, purified (HisTrap FF, HiTrap Heparin HP, Superdex 200); not shown: His6, N-terminal, kept
Assay: pull-down; biotinylated 42-nt RNA (22 nt of the SRSF4 3′ UTR followed by A20, or by 20 V as control) on NeutrAvidin agarose beads, incubated with 2 μg His-MKRN1-WT and/or His-PABPC1, 1 h at 4 °C, 50 mM Tris-HCl pH 7.4, 500 mM KCl, 12.5 mM MgCl2, 1% Triton X-100; SDS-PAGE with Coomassie staining
Conditions: both partners purified

T1 sequence (P11940 whole entry): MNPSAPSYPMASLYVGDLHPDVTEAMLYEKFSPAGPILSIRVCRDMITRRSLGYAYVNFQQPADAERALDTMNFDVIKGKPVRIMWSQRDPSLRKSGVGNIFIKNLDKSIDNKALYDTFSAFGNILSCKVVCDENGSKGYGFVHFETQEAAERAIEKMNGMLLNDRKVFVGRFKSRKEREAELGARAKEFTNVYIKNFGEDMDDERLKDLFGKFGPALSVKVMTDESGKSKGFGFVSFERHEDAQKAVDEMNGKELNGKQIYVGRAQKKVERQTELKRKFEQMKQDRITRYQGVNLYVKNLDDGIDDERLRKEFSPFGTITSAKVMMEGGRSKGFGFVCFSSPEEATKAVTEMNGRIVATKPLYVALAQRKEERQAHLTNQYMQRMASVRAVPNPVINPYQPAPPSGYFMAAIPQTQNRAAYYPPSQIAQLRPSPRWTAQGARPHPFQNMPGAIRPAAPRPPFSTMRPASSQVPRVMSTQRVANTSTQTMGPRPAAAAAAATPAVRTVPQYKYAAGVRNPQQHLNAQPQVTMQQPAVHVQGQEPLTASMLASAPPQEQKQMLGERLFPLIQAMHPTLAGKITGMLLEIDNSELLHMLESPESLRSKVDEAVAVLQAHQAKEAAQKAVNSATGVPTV

B1: recombinant His-MKRN1^wt (natural protein, human, UniProt Q9UHC7 1-482, looked up)
chain: MAEAATPGTTATTSGAGAAAATAAAASPTPIPTVTAPSLGAGGGGGGSDGSGGGWTKQVTCRYFMHGVCKEGDNCRYSHDLSDSPYSVVCKYFQRGYCIYGDRCRYEHSKPLKQEEATATELTTKSSLAASSSLSSIVGPLVEMNTGEAESRNSNFATVGAGSEDWVNAIEFVPGQPYCGRTAPSCTEAPLQGSVTKEESEKEQTAVETKKQLCPYAAVGECRYGENCVYLHGDSCDMCGLQVLHPMDAAQRSQHIKSCIEAHEKDMELSFAVQRSKDMVCGICMEVVYEKANPSERRFGILSNCNHTYCLKCIRKWRSAKQFESKIIKSCPECRITSNFVIPSEYWVEEKEEKQKLILKYKEAMSNKACRYFDEGRGSCPFGGNCFYKHAYPDGRREEPQRQKVGTSSRYRAQRRNHFWELIEERENSNPFDNDEEEVVTFELGEMLLMLLAAGGDDELTDSEDEWDLFHDELEDFYDLDL
notes: hsMKRN1 expressed from pET53-DEST; also called N-His6-tagged hsMKRN1; source: E. coli Rosetta 2(DE3) pLysS, purified (HisTrap FF, HiTrap Q HP, Superdex 200); not shown: His6, N-terminal, kept
B1: binds.
